Measurements as given in publication doi:10.1101/2022.12.05.519077.

Molecular target: Kcnj13 (Kir7.1) from D. rerio fused to mCherry, with N-terminal His-tags (D. rerio)
Assay: mass photometry

For “Kcnj13 (Kir7.1) from D. rerio fused to mCherry, with N-terminal His-tags (natural protein)”, which stoichiometry N is on record?
Its stoichiometry N is 4.
